Reference: US20240309080A1 (CHIA TAI TIANQING PHARMACEUTICAL GROUP, published 2024)
Read-outs that look alike come from different tables or passages of the source.

Assays:
Assay in all cases: cell-based or functional assay
[1] = target: T1, recombinant human TSLP-his (human, UniProt Q969D9 29-159, biotin-labeled in the capture ELISA)
[2] = target: T1, recombinant human TSLP-his; remark: listed apart in the source
[3] = target: T1, recombinant human TSLP-his; remark: listed apart in the source
[4] = target: T1, recombinant human TSLP-his; remark: listed apart in the source
[5] = target: T1, recombinant human TSLP-his; remark: listed apart in the source
[6] = target: T1, recombinant human TSLP-his; remark: listed apart in the source

IC50, STAT5-luciferase reporter in HEK293T-TSLPR/IL7R/STAT5-Luc cells stimulated with human TSLP-his (RLU) [2] [µg/mL]	IC50, STAT5-luciferase reporter in HEK293T-TSLPR/IL7R/STAT5-Luc cells stimulated with human TSLP-his (RLU) [4] [µg/mL]	Binder	IC50, TSLP-his dependent survival and proliferation of BAF3-3E6 cells expressing TSLPR/IL7R (RLU) [1] [pM]	IC50, TSLP-his dependent survival and proliferation of BAF3-3E6 cells expressing TSLPR/IL7R (Cell Titer-Glo, RLU) [3] [pM]	IC50, TSLP-his dependent survival and proliferation of BAF3-3E6 cells expressing TSLPR/IL7R (Cell Titer-Glo, RLU) [5] [pM]	IC50, TSLP-his dependent survival and proliferation of BAF3-3E6 cells expressing TSLPR/IL7R (RLU) [6] [pM]
0.0118	–	hu1C5F12E9-V8 (IgG1) (antibody) heavy: not shown light: DIQMTQSPSSLSASVGDRVTITCRPTENIYSYLAWYQQKPGKAPKLLIYFARTLAEGVPSRFSGSGSGTDFTLTISSLQPEDFATYYCQHHYGTPWTFGGGTKVEIKRTVAAPSVFIFPPSDEQLKSGTASVVCLLNNFYPREAKVQWKVDNALQSGNSQESVTEQDSKDSTYSLSSTLTLSKADYEKHKVYACEVTHQGLSSPVTKSFNRGEC	4.32	–	–	–
~0.0162	–	hu1C5F12E9-V8 (IgG4) (antibody) heavy: not shown light: DIQMTQSPSSLSASVGDRVTITCRPTENIYSYLAWYQQKPGKAPKLLIYFARTLAEGVPSRFSGSGSGTDFTLTISSLQPEDFATYYCQHHYGTPWTFGGGTKVEIKRTVAAPSVFIFPPSDEQLKSGTASVVCLLNNFYPREAKVQWKVDNALQSGNSQESVTEQDSKDSTYSLSSTLTLSKADYEKHKVYACEVTHQGLSSPVTKSFNRGEC	14.7	1.68	–	–
–	0.025	hu1C5F12E9-V14 (IgG4) (antibody) heavy: not shown light: DIQMTQSPSSLSASVGDRVTITCRPTENIYSYLAWYQQKPGKSPKLLIYFARTLAEGVPSRFSGSGSGTDFTLTISSLQPEDFATYYCQHHYGTPWTFGGGTKVEIKRTVAAPSVFIFPPSDEQLKSGTASVVCLLNNFYPREAKVQWKVDNALQSGNSQESVTEQDSKDSTYSLSSTLTLSKADYEKHKVYACEVTHQGLSSPVTKSFNRGEC	–	–	5.78	8.36
–	0.022	hu1C5F12E9-V14 (IgG1) (antibody) heavy: not shown light: DIQMTQSPSSLSASVGDRVTITCRPTENIYSYLAWYQQKPGKSPKLLIYFARTLAEGVPSRFSGSGSGTDFTLTISSLQPEDFATYYCQHHYGTPWTFGGGTKVEIKRTVAAPSVFIFPPSDEQLKSGTASVVCLLNNFYPREAKVQWKVDNALQSGNSQESVTEQDSKDSTYSLSSTLTLSKADYEKHKVYACEVTHQGLSSPVTKSFNRGEC	–	–	–	6.73
–	–	Chimeric 1C5F12E9 (antibody, V domains shown) VH: QVQLQQPGTELVKPGASVKMSCKASGYTFTTYWMHWVKQRPGQGLEWIGVIDPSDSDTTYNQKFKGKATLTVDTSSSTAYMQLSSLTSEDSAVYYCTRSLDGYYDYWGQGTTLTVSS VL: DIQMTQSPASLSASVGETVTITCRPTENIYSYLAWYQQKQGKSPHLLVYFARTLAEGVPSRFSGSGSGTQFSLKINSLQPEDFGIYYCQHHYGTPWTFGGGTKLEIK	–	0.521	1.37	–
